According to paper doi:10.1101/2022.02.11.480115 (2022):

How the values were obtained:
Assay in all cases: BLI
[1] = target: H5 VN04 HA trimer (A/Vietnam/1203/2004) (influenza A virus A/Vietnam/1203/2004 …)
[2] = target: H7 AN13 HA trimer (A/Anhui/1/2013) (influenza A virus A/Anhui/1/2013 (H7N9))
[3] = target: H1 CA09 stem
[4] = target: H6 HA (recombinant, Figure 4e) (influenza A virus (H6 subtype, strain …))
[5] = target: H10 JD13 HA trimer (A/Jiangxi-Donghu/346/2013, H10N8) (influenza A virus …)
[6] = target: H1 HA (recombinant, Figure 4e) (influenza A virus (H1 subtype, strain …))

B1: 789-203-3C12 Fab (Fab, V domains shown)
VH: QVQLQESGPGLVKPSEILSLTCAVSGGSFSSYCWGWIRQPPGKGLEWIGSICGSGGSNYLNPSLKSRVTLSVDTSKNQFSLILNSVTAADTAVYYCAREGITIFGVVIPRVLDSWGQGAVVTVSS
VL: DIQMTQSPSSLSASVGDTVTITCRASQSISSWLAWYQQKPGKAPNLLIYRASTLQSGVPSRFSGSGSGTDFTLTISSLQSEDFATYFCQQSTSSPFTFGPGTKLDIK
[1]
  Kd: 151 nM
[2]
  Kd: 534 nM
[3]
  Kd: 5.66 nM
[4]
  Kd: 27.5 nM
[5]
  Kd: 81.6 nM
[6]
  Kd: 6.59 nM
